Results on 32 sequences are retold here after the supplement of paper PMC9170038.

This series deals with MS2 coat protein. The series can be described thus: apparent KD of MS2 coat protein; designed switch direction (-1 OFF switch, 1 ON switch): -1; higher = weaker reporter binding. The method in brief: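 Transcription of designed RNA switches on Illumina chips was done by stalled E. coli RNA polymerase. SNAP-549-labelled MS2 coat protein was then titrated in doubling steps from 0.7 or 1.5 nM to 3 µM, with steps of 0.8–1.5 h at the lowest and 10–20 min at the highest concentration. The per-design median over clusters of curve-fitted normalised fluorescence is reported as apparent KD.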

The mark [1] stands for this setting: Eterna round: R95, input ligand: FMN 200 uM.
Where [2] appears, read: Eterna round: R95, input ligand: microRNA oligo, concentration not stated.
The mark [3] stands for this setting: Eterna round: R95, input ligand: none.
Setting [4] is: input ligand: microRNA oligo, concentration not stated.

“UUUAAUUUUUUUUUUUUACAAGCUUUUUGCUCGUCUUAUACAUGAGGAUCACCCAUGUGGGUGAAGGAUAAAUUAUC [JMF 26] (puzzle: Sensor v3, turn-off variant 2)”: the “apparent KD of MS2 coat protein” value is, setting by setting: under setting [1], 35.6 nM; under setting [2], 36.2 nM; under setting [3], 34.3 nM.
As for “GAUCAUGCAGGAUAUACAGUUUCCAUGAAAACAUGGUCCUCACAUGAGGAUCACCCAUGUAGAAGGGCAUGAUC [Omei Ex2 A28] (Eterna round: R97, puzzle: Exclusion 2)”, the “apparent KD of MS2 coat protein” value runs as follows: (input ligand: FMN 200 uM) 151 nM; (input ligand: none) 1490 nM.
The like results for “CUCAGUGGUGAGGAUAUGCGCGCCCAAUGGACGGUAGAAGGUACUACAUGAGGAUCACCCAUGUAGCGAAGAUU [Eternabot (L1) Solution 49] (Eterna round: R97, puzzle: Exclusion 6)” were, in that order, 15.9 nM and 15.8 nM.
“GAAAAGGUAGGAUAUACGAAAAAAAAGGGUAGAAAAAAAACACAUGAGGAUCACCCAUGUAGAAGGACCAAAAA [salish99_ex2_r3_050] (puzzle: Exclusion 2)”: the “apparent KD of MS2 coat protein” value was found to be 98.9 nM under setting [1], 45 nM under setting [2] and 34.2 nM under setting [3].
As to “GUAACAACUAGAGGAUAUCAGCACGUGUUGUGCUGAGAAGGCUAGAGUUACAUGAGGAUCACCCAUGUCUAGAGAUCAUUAAUU [ENG1/13-A4] (Eterna round: R96, puzzle: Exclusion NG 1)”, the “apparent KD of MS2 coat protein” value turned out to be 120 nM (input ligand: FMN 200 uM), 29.5 nM under setting [4] and 49.1 nM (input ligand: none).
Regarding “CACUUACAUGAGGAUCACCCAUGUGAGGAUAUCGUGACCAGACGAGAAGUCUAUGUCACGAGAAGGCACUUGGG [Exclusion 1 (Mod 2 solution 97 by Eternabot)] (Eterna round: R97, puzzle: Exclusion 1)”, the “apparent KD of MS2 coat protein” value runs as follows: (input ligand: FMN 200 uM) 114 nM; (input ligand: none) 314 nM.
As to “UUGUUAUAUGUAGGAUAUGCGUAUUAUUAUUAUGCAGAAGGACAUGAGGAUCACCCAUGUGUAUUAUUAUUAUAUAUUAUAUAU [Title] (Eterna round: R96, puzzle: Exclusion NG 1)”, the “apparent KD of MS2 coat protein” value was determined as 41.3 nM (input ligand: FMN 200 uM), 15.5 nM under setting [4] and 21.1 nM (input ligand: none).
In the case of “UUAAAUCAUGUAGGAUAUGCGUGGCGAAGCUAUGCAGAAGGACAUGAGGAUCACCCAUGUGCUGCGGUCUGCGUACAGAUCGCA [JL ENG1 1.06] (Eterna round: R96, puzzle: Exclusion NG 1)”, the “apparent KD of MS2 coat protein” value (input ligand: FMN 200 uM) was 87.6 nM, the “apparent KD of MS2 coat protein” value under setting [4] stood at 259 nM and the “apparent KD of MS2 coat protein” value (input ligand: none) came to 307 nM.
For the sequence “AAGAAACAUGAGGAUCACCCAUGUGAGGAUAUGAAAAAUAAAAGAAAAGAAAUAAUAAUCAGAAGGCACAAAGG [Mat - Mod of Hog D9] (puzzle: Exclusion 1)”, the “apparent KD of MS2 coat protein” value by setting is: under setting [1], 43 nM; under setting [2], 26.6 nM; under setting [3], 28.9 nM.
Turning to “GAGAAGGUAGGAUAUACGAAGAAAGAGGGUAGGAAGAAGACACAUGAGGAUCACCCAUGUAGAAGGACCAAGAG [Mat - Exclusion 2 - Mod of my Tesla design - D48] (puzzle: Exclusion 2)”, the “apparent KD of MS2 coat protein” value by setting is: under setting [1], 27.1 nM; under setting [2], 13.9 nM; under setting [3], 14.1 nM.
Take “CCUCUGUAAGGAUAUACGGAGACGGCUGGAAUCAGUGGAAAGUAGAAGGUACAUGAGGAUCACCCAUGUGAGAC [Anceleso] (puzzle: Exclusion 4)”: the “apparent KD of MS2 coat protein” value under setting [2] came to 20.2 nM.
In the case of “CUUGUUUAUGUAGGAUAUGCCUGGCGUGCCUUUGCAGAAGGACAUGAGGAUCACCCAUGUAGUAUGAGGCUUACCCUUGUCGCC [salish99_ExNG1_r04_120] (Eterna round: R96, puzzle: Exclusion NG 1)”, the “apparent KD of MS2 coat protein” value under setting [4] came out at 19.9 nM.
For the sequence “CUUUUGUGAGGAUAUCAGUAGUAAAAAAAUAAAAUUUCUACUGAGAAGGCACAUGAGGAUCACCCAUGUUCCUC [salish99_ex4_r3_026] (puzzle: Exclusion 4)”, the “apparent KD of MS2 coat protein” value under setting [2] worked out at 34.5 nM.
For the sequence “CAGUACUGAGGAUAUACAUGAGGAUCACCCAUGUGCUUUAGCUAGGAUACUAGCAUCAGUAGAAGGCAGUACUG [Fiskers Ex 3 828 mod 11] (puzzle: Exclusion 3)”, under setting [2], the “apparent KD of MS2 coat protein” value came to 12.9 nM.
Regarding “GGUCAAGAACAGCUCCGCGCUGCCCUUGACCGCUCAUUUACAUGAGGAUCACCCAUGUUUUUUGCUUGUCUUGUUUC [Bebiesgebe] (puzzle: Sensor v3, turn-off variant 2)”, the “apparent KD of MS2 coat protein” value reads like this: under setting [1], 20 nM; under setting [2], 127 nM; under setting [3], 22.6 nM.
As for “GAGGUCGCAGGAUAUAGUACAUAGAACAUGAGGAUCACCCAUGUAGCGGGAGGUUCUAUAUUAGAAGGGUGAAGUC [Eternabot (L2) Solution 97] (Eterna round: R97, puzzle: Exclusion 5)”, the “apparent KD of MS2 coat protein” value by setting is: (input ligand: FMN 200 uM) 572 nM; (input ligand: none) 494 nM.
On to “CCUAAACAUGAGGAUCACCCAUGUGAGGAUAUGAUGCAGCAGUGGUCUACGCUGUGCAUCAGAAGGUACAUGGU (puzzle: Exclusion 1)”, for which the “apparent KD of MS2 coat protein” value under setting [2] was determined as 73.4 nM.
Take “UCUCGACAUGAGGAUCACCCAUGUCAGGAUAUUGUGUUUGAGGUUUUUUACCUUUUGGCAAGAAGGGAUGUGUG [LRO-Excl1-21] (Eterna round: R96, puzzle: Exclusion 1)”: the “apparent KD of MS2 coat protein” value was determined as 27.5 nM (input ligand: FMN 200 uM), 19.7 nM under setting [4] and 27.7 nM (input ligand: none).
Turning to “UACAUGAGGAUCACCCAUGUUUUGUCGUGUAUGGUAUUUAUCUAGGAUAUCAAUGUAUUUAUUUAUGAGAAGGAGAAUAUUAAU [JMF's solution 12] (Eterna round: R96, puzzle: Exclusion NG 3)”, the “apparent KD of MS2 coat protein” value under setting [4] was 29.6 nM.
As to “AGUAACAGAGGAUAUACUGUUUUAUGUGUUUAUUGUUUUGAACAUGAGGAUCACCCAUGUAGAAGGCUGAAUAA [JMF 94] (puzzle: Exclusion 2)”, under setting [2], the “apparent KD of MS2 coat protein” value was 21.7 nM.
Regarding “UGAAACCUAGGAUAUACAUGAGGAUCACCCAUGUAAUGUAGUAUAGUAUAUGUAAGAUGUAGAAGGAGGAAAGU [LRO-Excl05-27-Smart Aleck] (Eterna round: R97, puzzle: Exclusion 3)”, the “apparent KD of MS2 coat protein” value is, setting by setting: (input ligand: FMN 200 uM) 26.3 nM; (input ligand: none) 37.7 nM.
“CGUGGCCAAGGAUAUGGGUAUCAUGACAUGAGGAUCACCCAUGUAUAGAGGAUCCAUAGCCCAGAAGGUGGUCCGG [Eternabot (L1) Solution 85] (Eterna round: R97, puzzle: Exclusion 5)”: the “apparent KD of MS2 coat protein” value reads like this: (input ligand: FMN 200 uM) 44 nM; (input ligand: none) 17 nM.
Take “GAUGAGAGAGGAUAUACAUGAGGAUCACCCAUGUAAUUUUCGGACAUGGAAGCCUGAUGUAGAAGGCUCGCAUG [Usmaercele] (puzzle: Exclusion 3)”: the “apparent KD of MS2 coat protein” value under setting [2] is 76.3 nM.
As for “AAAAGAACAGGAUAUUCGGGAAAUAACAUGAGGAUCACCCAUGUUAACGCGGGUGAGAACGAAGAAGGGUUCUAAA [Atusceon] (puzzle: Exclusion 5)”, the “apparent KD of MS2 coat protein” value reads like this: under setting [1], 114 nM; under setting [2], 96.4 nM; under setting [3], 93.1 nM.
Take “AAAAUGCAAGGAUAUCGCGAUAAAUACAUGAGGAUCACCCAUGUGAUUACGUGGGCACGGCGAGAAGGUGCUAAAA [Amadius] (puzzle: Exclusion 5)”: the “apparent KD of MS2 coat protein” value under setting [1] amounted to 119 nM, the “apparent KD of MS2 coat protein” value under setting [2] worked out at 26.1 nM and the “apparent KD of MS2 coat protein” value under setting [3] stood at 33.8 nM.
As to “UUGAUGUCAUCAGGAUAUAGUAUUUAAGACAUAUCUUCUUUCAAACAUGAGGAUCACCCAUGUCGCUAGAAGGGAUUAUUGAUU [JR_ExcNG2_Sub083] (Eterna round: R96, puzzle: Exclusion NG 2)”, the “apparent KD of MS2 coat protein” value under setting [4] is 11.4 nM.
As for “UUAAUUCGGAUUCUUGAAAUACAUGAGGAUCACCCAUGUUCACAGGAUAUUGAUUAAGUUAGUAACAAGAAGGGUGUAACAUAA [JR_ExcNG3_Sub035] (Eterna round: R96, puzzle: Exclusion NG 3)”, the “apparent KD of MS2 coat protein” value (input ligand: FMN 200 uM) amounted to 57.8 nM, the “apparent KD of MS2 coat protein” value under setting [4] turned out to be 17.6 nM and the “apparent KD of MS2 coat protein” value (input ligand: none) came out at 22.9 nM.
For the sequence “CUUCGACAUGAGGAUCACCCAUGUCAGGAUAUUGUGUAUCGGGUUUUUUACGGAAAGGCGAGAAGGGAUGUGUG [LRO-Excl1-09] (puzzle: Exclusion 1)”, under setting [2], the “apparent KD of MS2 coat protein” value is 22 nM.
As for “AAAUGUUCGGAGGAUAUAGAACGAUUGUCCGAGCUAGAAGGCCGAACAUGAGGAUCACCCAUGUGUACCUGAAA [Atmare] (puzzle: Exclusion 6)”, the “apparent KD of MS2 coat protein” value was 256 nM under setting [1], 38.8 nM under setting [2] and 41.2 nM under setting [3].
“AAUAUACAUGUAGGAUAUCUGCACGUGUAGUGCAGAGAAGGACAUGAGGAUCACCCAUGUAAUUAAGAUCAAUUAUUAAAUAUU [ENG1/3-B3] (Eterna round: R96, puzzle: Exclusion NG 1)”: the “apparent KD of MS2 coat protein” value (input ligand: FMN 200 uM) came to 447 nM, the “apparent KD of MS2 coat protein” value under setting [4] came to 32.2 nM and the “apparent KD of MS2 coat protein” value (input ligand: none) was determined as 62.3 nM.
“AAGUAUAGAGGAUAUAGUGAGUACUACAUGAGGAUCACCCAUGUUCUUCAAAGCGUAUUUCUAGAAGGCUGUUAAA [EX-5 Malc#18] (puzzle: Exclusion 5)”: the “apparent KD of MS2 coat protein” value under setting [1] is 123 nM, the “apparent KD of MS2 coat protein” value under setting [2] was 48.7 nM and the “apparent KD of MS2 coat protein” value under setting [3] was found to be 53.1 nM.
“GAGGAUAGAGGAUAUGCAUAGAUACGGAUUCGUGUAGUACUACAUGAGGAUCACCCAUGUAGAAGGCUGUCCAG [Mat - Exclusion 2 - Mod of JL - D75] (puzzle: Exclusion 2)”: under setting [2], the “apparent KD of MS2 coat protein” value came to 12.8 nM.
